This data set has as its system F1*sub RNA substrate (template-directed ligation). Description: fraction ligated after 30 min (ligated reads / total reads); higher = more ligase activity; sequences stand for … in GAGACCGCAACTGAAAAGTTGT…AGTTCTGCACGTAGAAGCAAAAGGC
The note with it: 42 °C. The procedure, abridged: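 Oligo-pool templates of ligase ribozyme variants were PCR-amplified, T7-transcribed and gel-purified. Ligated and unligated bands were gel-separated, reverse transcribed with barcoded primers, and MiSeq-sequenced; core bases were filtered at quality ≥20. Fraction ligated per variant was ligated reads over total reads.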
On to TACACTTGTCTAAGACACTTTGGATGGGTTGA [2d54], for which the fraction ligated is 0.609.

Consider TACACTTGTCTAAGACACTTTGGATGGTTGA [3d643], for which the fraction ligated was 0.449.

With TACACTTGTCTAAGACACTTTGGTGGGTTGA [3d641], the fraction ligated is 0.124.

In turn, TACACTTGTCTAAGACATTTGGATGGGTTGA [3d638] registered a fraction ligated of 0.457.

TACACTTGTCTAAGACCTTTGGATGGGTTGA [3d637] showed a fraction ligated of 0.0809.

In turn, TACACTTGTCTAAGCACTTTGGATGGGTTGA [3d635] had a fraction ligated of 0.142.

In turn, TACACTTGTCTAGACACTTTGGATGGGTTGA [3d633] came in with a fraction ligated of 0.195.

TACACTTGTGAAGACACTTTGGATGGGTTGA [3d618] had a fraction ligated of 0.345.

On to TACACTTGTGTAAACACTTTGGATGGGTTGA [3d620], for which the fraction ligated was determined as 0.0848.

As for TACACTTGTGTAAGAACTTTGGATGGGTTGA [3d622], the fraction ligated is 0.00557.

In the case of TACACTTGTGTAAGACACTTGGATGGGTTGA [3d625], the fraction ligated came out at 0.0347.

The sequence TACACTTGTGTAAGACACTTTGATGGGTTGA [3d626] registered a fraction ligated of 0.0413.

In the case of TACACTTGTGTAAGACACTTTGGAGGGTTGA [3d628], the fraction ligated came to 0.0881.

For TACACTTGTGTAAGACACTTTGGATGGGTTA [3d630], the fraction ligated was found to be 0.0333.

TACACTTGTGTAAGACACTTTGGATGGGTTG [3d631]: the fraction ligated was found to be 0.145.

TACACTTGTGTAAGACACTTTGGATGGGTTGA [2d53] registered a fraction ligated of 0.243.

In turn, TACACTTGTGTAAGACACTTTGGATGGTTGA [3d629] registered a fraction ligated of 0.141.

TACACTTGTGTAAGACACTTTGGTGGGTTGA [3d627] registered a fraction ligated of 0.134.

With TACACTTGTGTAAGACATTTGGATGGGTTGA [3d624], the fraction ligated was 0.392.

Sequence TACACTTGTGTAAGACCTTTGGATGGGTTGA [3d623] yielded a fraction ligated of 0.0441.

TACACTTGTGTAAGCACTTTGGATGGGTTGA [3d621]: the fraction ligated worked out at 0.101.

The sequence TACACTTGTGTAGACACTTTGGATGGGTTGA [3d619] displayed a fraction ligated of 0.0703.

TACACTTGTTAAGACACTTTGGATGGGTTGA [3d617] had a fraction ligated of 0.244.

As to TACACTTTCGAAGACACTTTGGATGGGTTGA [3d587], the fraction ligated turned out to be 0.0357.

TACACTTTCGTAAACACTTTGGATGGGTTGA [3d589]: the fraction ligated was determined as 0.0248.

TACACTTTCGTAAGAACTTTGGATGGGTTGA [3d591] returned a fraction ligated of 0.0829.

With TACACTTTCGTAAGACACTTGGATGGGTTGA [3d594], the fraction ligated was 0.0252.

TACACTTTCGTAAGACACTTTGATGGGTTGA [3d595] displayed a fraction ligated of 0.0271.

In turn, TACACTTTCGTAAGACACTTTGGAGGGTTGA [3d597] yielded a fraction ligated of 0.0439.

The sequence TACACTTTCGTAAGACACTTTGGATGGGTTA [3d599] returned a fraction ligated of 0.00822.

In the case of TACACTTTCGTAAGACACTTTGGATGGGTTG [3d600], the fraction ligated was determined as 0.0259.

For the sequence TACACTTTCGTAAGACACTTTGGATGGGTTGA [2d51], the fraction ligated was determined as 0.0483.

Take TACACTTTCGTAAGACACTTTGGATGGTTGA [3d598]: the fraction ligated came to 0.0486.

Regarding TACACTTTCGTAAGACACTTTGGTGGGTTGA [3d596], the fraction ligated amounted to 0.0156.

In the case of TACACTTTCGTAAGACATTTGGATGGGTTGA [3d593], the fraction ligated worked out at 0.292.

In the case of TACACTTTCGTAAGACCTTTGGATGGGTTGA [3d592], the fraction ligated came out at 0.0278.

TACACTTTCGTAAGCACTTTGGATGGGTTGA [3d590] showed a fraction ligated of 0.0355.

On to TACACTTTCGTAGACACTTTGGATGGGTTGA [3d588], for which the fraction ligated came out at 0.0222.

TACACTTTCTAAGACACTTTGGATGGGTTGA [3d586] displayed a fraction ligated of 0.0445.

As to TACACTTTGTAAGACACTTTGGATGGGTTGA [3d585], the fraction ligated amounted to 0.0938.

As to TACATGTCGTAAGACACTTTGGATGGGTTGA [3d547], the fraction ligated was 0.16.

On to TACATTGCGTAAGACACTTTGGATGGGTTGA [3d549], for which the fraction ligated is 0.0211.

With TACATTGTCGAAGACACTTTGGATGGGTTGA [3d552], the fraction ligated worked out at 0.0671.

Turning to TACATTGTCGTAAACACTTTGGATGGGTTGA [3d554], the fraction ligated came to 0.0244.

For TACATTGTCGTAAGAACTTTGGATGGGTTGA [3d556], the fraction ligated was determined as 0.0064.

With TACATTGTCGTAAGACACTTGGATGGGTTGA [3d559], the fraction ligated came to 0.19.

As for TACATTGTCGTAAGACACTTTGATGGGTTGA [3d560], the fraction ligated is 0.232.

Sequence TACATTGTCGTAAGACACTTTGGAGGGTTGA [3d562] gave a fraction ligated of 0.16.

Sequence TACATTGTCGTAAGACACTTTGGATGGGTTA [3d564] registered a fraction ligated of 0.0607.

For TACATTGTCGTAAGACACTTTGGATGGGTTG [3d565], the fraction ligated is 0.163.

TACATTGTCGTAAGACACTTTGGATGGGTTGA [2d49] returned a fraction ligated of 0.223.

In turn, TACATTGTCGTAAGACACTTTGGATGGTTGA [3d563] yielded a fraction ligated of 0.303.

TACATTGTCGTAAGACACTTTGGTGGGTTGA [3d561]: the fraction ligated is 0.144.

For the sequence TACATTGTCGTAAGACATTTGGATGGGTTGA [3d558], the fraction ligated amounted to 0.298.

As for TACATTGTCGTAAGACCTTTGGATGGGTTGA [3d557], the fraction ligated stood at 0.214.

In turn, TACATTGTCGTAAGCACTTTGGATGGGTTGA [3d555] registered a fraction ligated of 0.041.

TACATTGTCGTAGACACTTTGGATGGGTTGA [3d553] had a fraction ligated of 0.0879.

Turning to TACATTGTCTAAGACACTTTGGATGGGTTGA [3d551], the fraction ligated amounted to 0.0666.

Take TACATTGTGTAAGACACTTTGGATGGGTTGA [3d550]: the fraction ligated turned out to be 0.0317.

TACATTTCGTAAGACACTTTGGATGGGTTGA [3d548] returned a fraction ligated of 0.0271.

Regarding TACCTGTCGTAAGACACTTTGGATGGGTTGA [3d528], the fraction ligated is 0.655.

Take TACCTTGCGTAAGACACTTTGGATGGGTTGA [3d530]: the fraction ligated came to 0.392.

In the case of TACCTTGTCGAAGACACTTTGGATGGGTTGA [3d533], the fraction ligated is 0.676.

In turn, TACCTTGTCGTAAACACTTTGGATGGGTTGA [3d535] had a fraction ligated of 0.418.

Consider TACCTTGTCGTAAGAACTTTGGATGGGTTGA [3d537], for which the fraction ligated came out at 0.253.

The sequence TACCTTGTCGTAAGACACTTGGATGGGTTGA [3d540] returned a fraction ligated of 0.746.

In turn, TACCTTGTCGTAAGACACTTTGATGGGTTGA [3d541] returned a fraction ligated of 0.304.

For TACCTTGTCGTAAGACACTTTGGAGGGTTGA [3d543], the fraction ligated was 0.24.

TACCTTGTCGTAAGACACTTTGGATGGGTTA [3d545] yielded a fraction ligated of 0.548.

Regarding TACCTTGTCGTAAGACACTTTGGATGGGTTG [3d546], the fraction ligated is 0.719.

TACCTTGTCGTAAGACACTTTGGATGGGTTGA [2d48] displayed a fraction ligated of 0.772.

TACCTTGTCGTAAGACACTTTGGATGGTTGA [3d544] displayed a fraction ligated of 0.233.

In the case of TACCTTGTCGTAAGACACTTTGGTGGGTTGA [3d542], the fraction ligated came out at 0.744.

With TACCTTGTCGTAAGACATTTGGATGGGTTGA [3d539], the fraction ligated is 0.749.

With TACCTTGTCGTAAGACCTTTGGATGGGTTGA [3d538], the fraction ligated amounted to 0.734.

With TACCTTGTCGTAAGCACTTTGGATGGGTTGA [3d536], the fraction ligated turned out to be 0.668.

In turn, TACCTTGTCGTAGACACTTTGGATGGGTTGA [3d534] registered a fraction ligated of 0.697.

TACCTTGTCTAAGACACTTTGGATGGGTTGA [3d532]: the fraction ligated was determined as 0.685.

With TACCTTGTGTAAGACACTTTGGATGGGTTGA [3d531], the fraction ligated worked out at 0.795.

For TACCTTTCGTAAGACACTTTGGATGGGTTGA [3d529], the fraction ligated worked out at 0.435.

Regarding TACTTGTCGTAAGACACTTTGGATGGGTTGA [3d2], the fraction ligated was determined as 0.486.

Consider TATACGTCGTAAGACACTTTGGATGGGTTGA [3d777], for which the fraction ligated came out at 0.735.

For the sequence TATACTGCGTAAGACACTTTGGATGGGTTGA [3d779], the fraction ligated is 0.779.

TATACTGTCGAAGACACTTTGGATGGGTTGA [3d782] had a fraction ligated of 0.71.

TATACTGTCGTAAACACTTTGGATGGGTTGA [3d784] yielded a fraction ligated of 0.721.

Sequence TATACTGTCGTAAGAACTTTGGATGGGTTGA [3d786] returned a fraction ligated of 0.809.

On to TATACTGTCGTAAGACACTTGGATGGGTTGA [3d789], for which the fraction ligated amounted to 0.803.

Sequence TATACTGTCGTAAGACACTTTGATGGGTTGA [3d790] yielded a fraction ligated of 0.743.

For the sequence TATACTGTCGTAAGACACTTTGGAGGGTTGA [3d792], the fraction ligated came out at 0.042.

Regarding TATACTGTCGTAAGACACTTTGGATGGGTTA [3d794], the fraction ligated came to 0.0511.

For the sequence TATACTGTCGTAAGACACTTTGGATGGGTTG [3d795], the fraction ligated turned out to be 0.683.

TATACTGTCGTAAGACACTTTGGATGGGTTGA [2d71] came in with a fraction ligated of 0.797.

For the sequence TATACTGTCGTAAGACACTTTGGATGGTTGA [3d793], the fraction ligated was determined as 0.132.

TATACTGTCGTAAGACACTTTGGTGGGTTGA [3d791] yielded a fraction ligated of 0.0244.

For the sequence TATACTGTCGTAAGACATTTGGATGGGTTGA [3d788], the fraction ligated is 0.756.

Consider TATACTGTCGTAAGACCTTTGGATGGGTTGA [3d787], for which the fraction ligated worked out at 0.765.

Consider TATACTGTCGTAAGCACTTTGGATGGGTTGA [3d785], for which the fraction ligated was determined as 0.759.

In turn, TATACTGTCGTAGACACTTTGGATGGGTTGA [3d783] registered a fraction ligated of 0.757.

The values are drawn from the supplement of paper PMC6755084.
